Assay results: US20190002404

Tested on: purified, Flag-tagged recombinant PGAM1 (rPGAM1)

Substance	in vitro kinase assay (Y26 phosphorylation)	in vitro kinase assay (tyrosine phosphorylation)
active, recombinant JAK2 (rJAK2)	FGFR1 (FIG. 13B), JAK2 (FIG. 13C) and FLT3 (data not shown) directly phosphorylated PGAM1 at Y26 in vitro	–
FLT3	FGFR1 (FIG. 13B), JAK2 (FIG. 13C) and FLT3 (data not shown) directly phosphorylated PGAM1 at Y26 in vitro	–
active, recombinant FGFR1 (rFGFR1)	FGFR1 (FIG. 13B), JAK2 (FIG. 13C) and FLT3 (data not shown) directly phosphorylated PGAM1 at Y26 in vitro	active, recombinant FGFR1 (rFGFR1) directly phosphorylated purified, Flag-tagged recombinant PGAM1 (rPGAM1) at tyrosine residues
